Source: the supplement of paper PMC10567573
± gives the standard deviation.

Experiment: protein stability index of a GFP-peptide fusion (GPS, HEK-293T) (PSI 1-6); higher = more stable
[1] = treatment: DMSO, c terminus: a fixed tail appended
[2] = treatment: MLN4924 1 uM, 8 h, c terminus: a fixed tail appended
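Further: 24-mer peptide tiles fused after GFP, lentivirally expressed, FACS-sorted into six equal bins by GFP/DsRed ratio, decoded by Illumina sequencing, PSI is the read-weighted mean bin number.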

Sequence	protein stability index [1]	protein stability index [2]	protein stability index (treatment: DMSO, c terminus: native)	protein stability index (treatment: MLN4924 1 uM, 8 h, c terminus: native)
LFDMCGISEAQLKDRETSKVIYDF [WASL]	2.58 ± 0.16	2.7 ± 0.3		
SAMALVKHSVLLSASRKSAEQLRI [WEE1]	2.06 ± 0.093	2.16 ± 0.13		
CLKEFPEKQELHRNMLGLLGNVAE [ZER1]	3.19 ± 0.15	3.3 ± 0.23		
LLFSDKNVNSNLITWNRVVLLHGP [TRIP13]	2.91 ± 0.79	2.28 ± 0.53		
EDKCPGNYTNPLKVQTVIILGKVI [TMEM192]	2.47 ± 1	2.29 ± 0.37		
LMRHGMEKIWRPNRVFSLQDLCCR [RAB40C]	2.74 ± 0.14	2.71 ± 0.27		
GPFDQGSPFAQELLDDGQQASPYH [ELF3]	5.16 ± 0.18	4.96 ± 0.13		
VSATKAEAEKDGVKVPTTLAEYCI [UBE2R2]	4.5 ± 0.33	4.5 ± 0.28		
ASLLHLAVEAGQEECAKWLLLNNA [RIPK4]	2.17 ± 0.068	2.74 ± 0.13		
VVKFVNFLLVNGFQTAIDIFEDRI [TRAF3IP2]	2.33 ± 0.45	2.83 ± 0.59		
VRSLRGEEPVPRERDRDPCGGSGG [LURAP1L]	5.34 ± 0.24	5.35 ± 0.095		
PKDENERSTCNVVQDEFLDTPCTN [DLC1]	5.45 ± 0.15	5.41 ± 0.13		
EKINKIKWLPQQNAAHSLLSTNDK [PPP2R2C]	4.07 ± 0.19	4.15 ± 0.11		
CEVMQEIVDQVLEEDFDSEQLSVL [INTS3]	5.06 ± 0.14	5.16 ± 0.12		
QELVLKVRIQNPSLRENDFIEIEL [ANKRD40]	2.68 ± 1.1	2.38 ± 1		
RMIPGQPPASARRLSVPRDSACDE [IRX6]	5.29 ± 0.24	5.29 ± 0.15		
ESSTREVVFPYTSKSCMRAVLEYL [RHOBTB2]	2.74 ± 0.13	2.32 ± 0.25		
VMAYDRYMAICKPLHELITMNRRV [OR4A15]	2.25 ± 0.35	2.23 ± 0.37		
QLQALNRRFQQTQYLALPERAELA [DLX1]	3.05 ± 0.28	3.23 ± 0.085		
KESLCISITVSKVDKDQPSILNSC [FBXO34]	2.28 ± 0.33	2.09 ± 0.28		
SRPNGTSAMLLVTLGKVLKVIVVM [MED27]	2.88 ± 0.46	2.93 ± 0.68		
CGYEGCRYGCGHRGCGDGCCCPSC [KRTAP19-2]	3.72 ± 0.31	3.72 ± 0.39		
VLTIALPVPVIVSNFNYFYHRETE [KCNA1]	3.02 ± 0.47	3.06 ± 0.41		

Sequence	protein stability index [1]	protein stability index [2]	protein stability index (treatment: DMSO, c terminus: native)	protein stability index (treatment: MLN4924 1 uM, 8 h, c terminus: native)
RRWHKSRLLQASGGGLTGVSGSHF [PCDHGA10]	2.67 ± 0.21	2.83 ± 0.16		
TLYRNRSNLETIFRIIDSDHSGFI [PPEF2]	2.06 ± 0.4	1.99 ± 0.099		
TVDKEVEIRKKVLKIYNKREEDFP [MNAT1]	4.08 ± 0.17	4.27 ± 0.12		
HCIQQILESVNHCHLNGIVHRDLK [CAMK2D]	2.26 ± 0.047	2.36 ± 0.5		
FSGGKSGGNKKSDGVKESSESTNT [CAMK2A]	5.25 ± 0.2	5.36 ± 0.34		
YKKAVGLKLKQEKKEAYLKLKQG [WDR88]			2.81 ± 0.4	3.13 ± 0.3
NVGLESKYLKKREDSIPLRGLSQN [SASS6]	4.34 ± 0.19	4.06 ± 0.26		
KVLFALCALNALTTTVCLVAAALR [FAM189A2]	3.13 ± 0.6	3.3 ± 0.21		
DTVTIPVPSEEPQESDQTEEHESG [IQUB]	5.54 ± 0.29	5.72 ± 0.14		
CNSHMPYGYAAQARARERERLAHS [KCNA4]	3.1 ± 0.23	3.13 ± 0.31		
SKIPHILKEMYDADLLEEEVIISW [EIF5]	2.19 ± 0.38	2.4 ± 0.24		
RWNKVKMVVSREEVELAYQEAMFN [SEPHS2]	2.62 ± 0.21	2.66 ± 0.29		
LIQHQRIHKGEKPYQCSQCSKSYS [ZSCAN9]	2.89 ± 0.3	3.26 ± 0.26		
GFEFSVPFTEMKLRPRNFRSPAGG [TNXB]		3.66 ± 0.66		
AARNACRAGTEPSDAIRVVNAVLT [TRIP13]	3 ± 0.45	3.19 ± 0.33		
PPFWDEDQHRLYKQIKAGAYDFPS [CAMK2A]	3.4 ± 0.28	3.54 ± 0.29		
KHVEYEVSSQRFKSSVYRRYNDFV [SNX8]	2.35 ± 0.3	2.8 ± 0.39		
QAASRIIRNEQFAIRRFQSMPVRL [CDC25B]	2.75 ± 0.31	2.74 ± 0.49		
SFELLVRFFACPSKATFSRNIMNL [KCNA3]	3.16 ± 0.46	2.96 ± 0.25		
NKVELQAKVESMDQEIKFFRCLFE [KRT71]	2.52 ± 0.51	2.48 ± 0.38		
YEYDHWDAAIHGFRETEKSRWSEA [ALKBH7]	3.64 ± 0.38	3.73 ± 0.22		
NQGYLSEAGASLVDQKLELNIVPR [PI4K2A]	4.05 ± 0.23	4.33 ± 0.28		
HEKIGFPAARRCHSCVQIKNDVFI [KLHDC10]	1.89 ± 0.31	1.73 ± 0.27		

Sequence	protein stability index [1]	protein stability index [2]	protein stability index (treatment: DMSO, c terminus: native)	protein stability index (treatment: MLN4924 1 uM, 8 h, c terminus: native)
TLGSSFIPGEHFWLLLLTRGLVGV [SPNS1]	3.15 ± 1.4	3.21 ± 0.84		
YLLKFLLVGDSDVGKGEILESLQD [RAB40C]	2.72 ± 0.38	2.45 ± 0.49		
HTLRASMRELGLLIFFLFIGVILF [KCNA4]	2.86 ± 0.53	2.61 ± 0.49		
MQPEGLKCRMEESNAERGTAEPFP [CBY2]	4.88 ± 0.3	4.69 ± 0.27		
TYSGKAADVWSLGVMLYTLLVGRY [TRIB1]	2.42 ± 0.36	2.21 ± 0.042		
RRSNSPDKFKRPTPPPSPNTQTPV [CCDC6]	5.27 ± 0.19	5.25 ± 0.16		
SSATTYFWYREALDISDSISESGG [SLC6A17]	2.62 ± 0.46	2.73 ± 0.34		
VGVFLDFESGSVSFLNVTKSSLIW [TRIM43]	3.08 ± 0.73	2.506 ± 0.003		
EADKNDKAVKDLVVLLFETALLSS [HSP90AB1]	2.13 ± 0.067	2.2 ± 0.39		
TENRGNEKEFMKGNQLISNNIKFK [CLCN6]	4.43 ± 0.28	4.52 ± 0.11		
PRLHGAKAILDAEPGPRPALQPSP [TBC1D10A]	4.81 ± 0.19	4.94 ± 0.17		
STSFMSSSSSSSSWLTRRAIRPEN [EMD]	3.39 ± 0.35	3.38 ± 0.16		
PPPPHPYNPHPGFPELGYSYGGGS [DVL3]	3.4 ± 0.32	3.6 ± 0.32		
TRKHHCRRCGKCFCDRCCSQKVPL [ZFYVE21]	3.31 ± 0.27	3.58 ± 0.19		
LWSDPDDRGGWGISPRGAGYTFGQ [PPP2CA]	2.5 ± 0.31	2.72 ± 0.26		
QSFTLRGDHRSPASAQKFSSRSTV [NET1]	3.92 ± 0.097	3.9 ± 0.3		
TEDVNTLDSEKRTPLHVAAFLGDA [ANKRD44]	4.72 ± 0.3	4.74 ± 0.11		
LATSPITVGDLGIVRRRSRDVPES [YJU2B]	4.42 ± 0.12	4.42 ± 0.2		
CVKLCTGHEYAAKIINTKKLSARD [CAMK2B]	3.14 ± 0.18	3.18 ± 0.28		
LVSRHDPASRRRVVEEVRRRATSG [LPCAT4]	4.5 ± 0.19	4.49 ± 0.23		
VLALRNMKNLLFSEMWDIFLVRLL [MFSD9]	2.13 ± 0.44	2.14 ± 0.49		
AHEYIFCFVLGFFYPVMLILFLVI [SOAT2]	2.98 ± 0.56	3.03 ± 0.23		
YRRHVLGIVLQGPALCFAAAIFSL [TMEM175]	2.93 ± 0.18	2.85 ± 0.39		

Sequence	protein stability index [1]	protein stability index [2]	protein stability index (treatment: DMSO, c terminus: native)	protein stability index (treatment: MLN4924 1 uM, 8 h, c terminus: native)
RSLFIDRTIVKGYNENVYTEDGKL [MED27]	4.07 ± 0.25	4.12 ± 0.21		
PCKLEKMRILAHGELVLATAISSF [TLE6]	2.7 ± 0.36	2.45 ± 0.41		
NYQAHQSRVTMILFVLELEWVLST [WDFY2]	3.1 ± 0.08	2.89 ± 0.67		
AMPPYGQGPPMVPPYQGGPPRPPM [ZNF207]	3.79 ± 0.45	3.92 ± 0.2		
DVAVTVDRDRFMDEFFEQVEEIRG [STX1A]	4.35 ± 0.39	4.49 ± 0.25		
IHHLVLTASDGGDPLRSGTVLVSV [PCDHGA10]	2.97 ± 0.45	2.79 ± 0.34		
VSSSEQLQSCQAEIIELRRTVNAL [KRT34]	3.02 ± 0.2	2.77 ± 0.3		
ASQPRGPALLFPATRGVPAKRLLD [TRIB1]	3.72 ± 0.62	3.9 ± 0.36		
TQSVMGFDPLPPSDTIYSYVRPER [TCF25]	3.52 ± 0.32	3.73 ± 0.12		
SADVNARDKNWQTPLHVAAANKAV [ANKRD44]	4.18 ± 0.31	4.07 ± 0.18		
VWVGVIRYLTFFHNYNILIATLRV [MCOLN1]	3.13 ± 0.1	2.86 ± 0.37		
KFDVLRAIELFHSYRETRRKEGIV [PTPN9]	2.35 ± 0.079	1.91 ± 0.42		
FGGGSTRGGSLLAGGGGFGGGSLS [KRT15]	2.54 ± 0.43	3.11 ± 0.52		
GAYKSSTICYCPEKGTWTELEGDV [KLHL14]	4.22 ± 0.32	4.38 ± 0.32		
FLIEGPLINTIRVVCASYEDYGHW [PLEKHN1]	3.56 ± 0.49	2.58 ± 0.94		
KYKSFNRTAMPYGGYEKASKRMTF [MYOZ1]	2.34 ± 0.31	2.57 ± 0.24		
ELQGDFSVPDVPKSMAWCENSICV [VPS39]	2.67 ± 0.22	2.67 ± 0.18		
VIPFKVDTILKYLKDHFSHLLGIP [IQUB]	2.92 ± 0.12	2.65 ± 0.18		
APHSQGEYDVYSTFQSHEPEFDYL [PPP2R2C]	4.22 ± 0.19	4.13 ± 0.2		
TAGPITGLVYRLNRFRVEISFHFE [TRIM43]	3.02 ± 0.7	3.2 ± 0.52		
